In IntAct's records for PubMed 26711270:

B1: Protein ecdysoneless homolog (Homo sapiens), O95905 (parent)
chain: MEETMKLATMEDTVEYCLFLIPDESRDSDKHKEILQKYIERIITRFAPMLVPYIWQNQPFNLKYKPGKGGVPAHMFGVTKFGDNIEDEWFIVYVIKQITKEFPELVARIEDNDGEFLLIEAADFLPKWLDPENSTNRVFFCHGELCIIPAPRKSGAESWLPTTPPTIPQALNIITAHSEKILASESIRAAVNRRIRGYPEKIQASLHRAHCFLPAGIVAVLKQRPRLVAAAVQAFYLRDPIDLRACRVFKTFLPETRIMTSVTFTKCLYAQLVQQRFVPDRRSGYRLPPPSDPQYRAHELGMKLAHGFEILCSKCSPHFSDCKKSLVTASPLWASFLESLKKNDYFKGLIEGSAQYRERLEMAENYFQLSVDWPESSLAMSPGEEILTLLQTIPFDIEDLKKEAANLPPEDDDQWLDLSPDQLDQLLQEAVGKKESESVSKEEKEQNYDLTEVSESMKAFISKVSTHKGAELPREPSEAPITFDADSFLNYFDKILGPRPNESDSDDLDDEDFECLDSDDDLDFETHEPGEEASLKGTLDNLKSYMAQMDQELAHTCISKSFTTRNQVEPVSQTTDNNSDEEDSGTGESVMAPVDVDLNLVSNILESYSSQAGLAGPASNLLQSMGVQLPDNTDHRPTSKPTKN

Variants of: B1
Details: with pihd1_human PIH1D1, Q9NWS0
Chain of pihd1_human PIH1D1, Q9NWS0 (Q9NWS0 whole entry): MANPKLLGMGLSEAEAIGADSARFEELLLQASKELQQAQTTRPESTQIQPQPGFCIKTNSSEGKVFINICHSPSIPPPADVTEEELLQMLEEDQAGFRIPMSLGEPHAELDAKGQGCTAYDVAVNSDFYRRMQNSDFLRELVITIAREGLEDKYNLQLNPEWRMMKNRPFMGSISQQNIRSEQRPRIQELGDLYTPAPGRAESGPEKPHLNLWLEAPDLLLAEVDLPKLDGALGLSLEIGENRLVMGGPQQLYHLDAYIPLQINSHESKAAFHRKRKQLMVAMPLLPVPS

Effect of a mutation on the interaction, disrupting interaction:
S503A;S505A;S518A;S572A;S579A;S584A
S503A;S505A;S518A
S503D;S505D;S518D;S572D;S579D;S584D
